{"source": "paper PMC2729104", "about": "(Nature immunology, 2009)", "key": {"[1]": {"biological_target": "protease fragment Bb of factor B (from plasma-purified FB) (human, UniProt P00751 260-764)", "sequence (P00751 260-764)": "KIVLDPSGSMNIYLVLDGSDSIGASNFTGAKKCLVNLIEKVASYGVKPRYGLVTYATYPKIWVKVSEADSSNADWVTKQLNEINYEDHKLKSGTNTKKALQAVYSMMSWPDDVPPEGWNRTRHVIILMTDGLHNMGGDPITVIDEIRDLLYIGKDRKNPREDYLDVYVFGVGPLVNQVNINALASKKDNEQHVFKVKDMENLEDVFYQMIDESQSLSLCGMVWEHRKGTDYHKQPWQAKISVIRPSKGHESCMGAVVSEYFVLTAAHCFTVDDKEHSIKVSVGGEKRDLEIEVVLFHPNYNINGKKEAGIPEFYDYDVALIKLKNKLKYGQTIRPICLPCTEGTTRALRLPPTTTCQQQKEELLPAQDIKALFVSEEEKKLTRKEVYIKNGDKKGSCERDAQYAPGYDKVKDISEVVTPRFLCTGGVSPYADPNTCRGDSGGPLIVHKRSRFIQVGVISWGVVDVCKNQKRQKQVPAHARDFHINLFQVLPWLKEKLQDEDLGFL", "experiment": "pull-down"}, "[2]": {"biological_target": "protease fragment Bb of factor B (from recombinant FB) (human, UniProt P00751 260-764)", "sequence (P00751 260-764)": "as above", "experiment": "crystal structure"}}, "data": [{"binder": "SCIN protein with an N-terminal His6 tag (natural protein, Staphylococcus aureus) STSLPTSNEYQNEKLANELKSLLDELNVNELATGSLNTYYKRTIKISGQKAMYALKSKDFKKMSEAKYQLQKIYNEIDEALKSKY", "values": [{"measurement": "binding result", "setting": "[1]", "value": "binds"}, {"measurement": "binding result", "setting": "[2]", "value": "binds"}]}]}
